Measurements published in PMC4381594, “GCN5 inhibits XBP-1S-mediated transcription by antagonizing PCAF action” (Oncotarget, 2014).

Columns and labels:
[1] = target: T1, XBP-1S, the active isoform of X-box binding protein 1 (human, UniProt P17861-2 1-376); assay: cell-based or functional assay
T1 sequence (looked up): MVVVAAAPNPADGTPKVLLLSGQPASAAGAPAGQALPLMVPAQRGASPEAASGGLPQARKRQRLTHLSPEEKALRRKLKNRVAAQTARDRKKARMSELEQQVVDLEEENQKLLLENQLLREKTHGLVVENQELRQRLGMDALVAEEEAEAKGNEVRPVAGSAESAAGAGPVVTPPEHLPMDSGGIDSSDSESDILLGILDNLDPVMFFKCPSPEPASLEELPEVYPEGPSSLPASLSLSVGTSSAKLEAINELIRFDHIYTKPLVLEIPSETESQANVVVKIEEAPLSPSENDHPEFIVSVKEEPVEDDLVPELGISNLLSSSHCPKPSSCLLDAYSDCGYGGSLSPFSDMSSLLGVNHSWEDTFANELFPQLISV

[2] = target: T1, XBP-1S, the active isoform of X-box …; assay: co-IP; 293T cells co-transfected with PCAF and XBP-1S vectors with or without a GCN5 plasmid; IP with anti-XBP-1 antibody, immunoblot with anti-PCAF or anti-XBP-1; bands quantified by densitometry, PCAF normalised to precipitated XBP-1S; settings: partners not purified

B1: general control nonderepressible 5 (GCN5) (enzyme, human, UniProt Q92830 1-837, looked up)
chain: MAEPSQAPTPAPAAQPRPLQSPAPAPTPTPAPSPASAPIPTPTPAPAPAPAAAPAGSTGTGGPGVGSGGAGSGGDPARPGLSQQQRASQRKAQVRGLPRAKKLEKLGVFSACKANETCKCNGWKNPKPPTAPRMDLQQPAANLSELCRSCEHPLADHVSHLENVSEDEINRLLGMVVDVENLFMSVHKEEDTDTKQVYFYLFKLLRKCILQMTRPVVEGSLGSPPFEKPNIEQGVLNFVQYKFSHLAPRERQTMFELSKMFLLCLNYWKLETPAQFRQRSQAEDVATYKVNYTRWLCYCHVPQSCDSLPRYETTHVFGRSLLRSIFTVTRRQLLEKFRVEKDKLVPEKRTLILTHFPKFLSMLEEEIYGANSPIWESGFTMPPSEGTQLVPRPASVSAAVVPSTPIFSPSMGGGSNSSLSLDSAGAEPMPGEKRTLPENLTLEDAKRLRVMGDIPMELVNEVMLTITDPAAMLGPETSLLSANAARDETARLEERRGIIEFHVIGNSLTPKANRRVLLWLVGLQNVFSHQLPRMPKEYIARLVFDPKHKTLALIKDGRVIGGICFRMFPTQGFTEIVFCAVTSNEQVKGYGTHLMNHLKEYHIKHNILYFLTYADEYAIGYFKKQGFSKDIKVPKSRYLGYIKDYEGATLMECELNPRIPYTELSHIIKKQKEIIKKLIERKQAQIRKVYPGLSCFKEGVRQIPVESVPGIRETGWKPLGKEKGKELKDPDQLYTTLKNLLAQIKSHPSAWPFMEPVKKSEAPDYYEVIRFPIDLKTMTERLRSRYYVTRKLFVADLQRVIANCREYNPPDSEYCRCASALEKFFYFKLKEGGLIDK
notes: No tag is named for this plasmid; precipitated and detected with anti-GCN5 (ab71965); also called GCN5 WT; source: 293T, transfected, in lysate
Q: B1 was tested. Which “fold decrease in XBP-1S-mediated luciferase expression from the 5×UPRE-Luc reporter in HEK293 cells with GCN5 overexpressed” value [1] did it give?
A: > 5 fold

Q: And the “fold decrease of PCAF-XBP-1S binding with GCN5 overexpressed” value [2]?
A: 4 fold
